Series [1] can be described thus: SEC-HPLC aggregation analysis. It counts as physicochemical. The method, then: The antibody aggregation was analyzed by size-exclusion, high-performance liquid chromatography (SEC-HPLC) using an Agilent 1100. The mAb was diluted to 1 mg/mL in DPBS. The antibody (20 μL) was injected onto a TSKgel® SuperSW guard column (4.6 mm×3.5 cm, 4 μm pore size, Tosoh Bioscience), followed by a TSKgel® SuperSW3000 column (4.6 mm×30 cm, 4 μm pore size), eluted from the column with 0.1 M sodium phosphate containing 0.15 M NaCl and 0.05% NaN3, at pH 7.4, at a flow rate of 0.3 mL/min for 20 min. All data were analyzed using Agilent ChemStation software. Percent aggregation was calculated as [PAaggregate/PAtotal]*100, where PA=integrated peak area.
ADC was diluted to 1 mg/mL in DPBS. ADC (10 μL) was then injected onto an Advanced SEC 300A guard column (4.6 mm×3.5 cm, 2.7 μm pore size, Agilent), followed by a AdvancedBio 300A column (4.6 mm×30 cm, 2.7 μm pore size). ADC was eluted from the column with 0.1 M sodium phosphate containing 0.15 M NaCl and 5% IPA, pH 7.4 at a flow rate of 0.25 mL/min for 28 min. All data were analyzed using Agilent ChemStation software. Percent aggregation was calculated as [PAaggregate/PAtotal]*100, where PA=integrated peak area.
Background: Size exclusion chromatography separates by hydrodynamic size, large species first.

Series [2] in a line: DAR analysis by LC-MS (UPLC/ESI-MS, reverse-phase LC-MS). Particulars: for DAR (LC-MS): reverse-phase LC-MS. The method, then: ADCs were deglycosylated using PNGase F (New England BioLabs). G7 buffer (10 μL) and PNGase F (2 μL) were added to the mAb (90 μL, 1 mg/mL in DPBS). The reaction was incubated in a Discover microwave (CEM) for 2 cycles: (1) microwave power 10 W, 37° C., 10 min, followed by a 5-min pause; (2) microwave power 2 W, 37° C., 10 min. A portion of the sample was reduced by adding DTT to a final concentration of 20 mM, followed by incubation at 60° C. for 3 min. Samples were then analyzed using a Waters Acquity Ultra Performance Liquid Chromatography (UPLC) and quadrupole time of flight (Q-Tof) Premier mass spectrometer. Samples (0.5-2 μg each) were injected onto a MassPrep™ micro desalting column at 65° C., eluted from the column with a 5 min equilibration in 95% of mobile phase A, a 10 min gradient (5-90% B), and a 10 min re-equilibration in 95% of mobile phase A, at 0.05 mL/min. Mobile phase A was 0.1% formic acid in water. Mobile phase B was 0.1% formic acid in acetonitrile. The Q-Tof mass spectrometer was run in positive ion, V-mode with detection in the range of 500-4000 m/z. The source parameters were as follows: capillary voltage, 2.25 kV (intact antibody)-2.50 kV (reduced antibody); sampling cone voltage, 65.0 V (intact antibody) or 50.0 V (reduced antibody); source temperature, 100° C.; desolvation temperature, 250° C.; desolvation gas flow, 550 L/hr. The protein peak was deconvoluted using the MassLynx® MaxEnt 1 function. Relative intensities of each unconjugated, singly-conjugated, and multiply-conjugated heavy and light chain masses were combined to calculate the overall DAR using the formula:
2[[ILC+1+2(ILC+2)+3(ILC+3)+ . . . n(ILC+n)]/ΣILCtot]+2[[IHC+1+2(IHC+2)+3(IHC+3)+ . . . n(IHC+n)]/ΣIHCtot]
where ILC+1 is mass intensity of light chain conjugated with one cytotoxin, ILC+2 is mass intensity of light chain conjugated with two cytotoxins, etc. IHC are the intensities from the corresponding conjugated heavy chains, and ΣILCtot and ΣIHCtot are the combined intensities of all unconjugated and conjugated light chains and heavy chains, respectively.
DAR was also analyzed using an LC-MS method with a Waters Alliance HPLC with SQD/PDA detection. Samples were injected onto a Proteomix RP-1000 column ([…], 1000A, 4.6 mm×15 cm, Sepax) at 65° C., and eluted with a 3 min equilibration in 25% B, a 27 min linear gradient from 25%-55% B, a 5 min hold at 55% B, a 1 min change to 90% B, a 5 min hold at 90% B, a 1 min change back to 25% B, and a 5 min reequilibration at 25% B. Mobile phase A was 0.1% TFA in water, and mobile phase B was 0.1% TFA in acetonitrile. The elute was then split (10:1) into PDA and SQD detectors. The SQD detector was set up as ES positive, capillary voltage at 3.2 kV, cone voltage at 40 V, extractor at 3 V, and RF lens at 0.2 V, source temperature at 150° C., and desolvation temperature at 250° C. Mass data was acquired at 200-2000 m/z for 40 min, continuum mode, scan time 1 second. Data was analyzed and deconvoluted offline using MassLynx and MaxEnt1. DAR was calculated using the formula:
2[[AUCLC+1+2(AUCLC+2)+3(AUCLC+3)+ . . . n(AUCLC+n)]/[…]]+2[[AUCHC+1+2(AUCHC+2)+3(AUCHC+3)+ . . . n(AUCHC+n)]/ΣAUCHCtot]
where AUCLC+1 is the area under the curve of the light chain peak conjugated with one cytotoxin, AUCLC+2 is the area under the curve of the light chain peak conjugated with two cytotoxins, etc. AUCHC is the area under the curve of the corresponding heavy chains, and ΣAUCLCtot and ΣAUCHCtot are the combined area under the curve of all unconjugated and conjugated light chains and heavy chains, respectively.

A further series addresses human mesothelin (Homo sapiens, UniProt Q13421). In words: ELISA, mesothelin. Type of series: binding. Particulars: MORAb-009 and its ADCs; for EC50: read-out: Antigen Binding ELISA, EC50. The method, then:
Recombinant human mesothelin was diluted to 1 μg/mL in coating buffer (50 mM carbonate-bicarbonate buffer, pH 9.6), and coated onto 96-well Maxisorp black plates (Thermo, Cat No. 43711, 100 μL/well) at 4° C., overnight. Coating solution was discarded and the plates were washed three times using 1×PBS with 0.05% Tween-20 (PBST) buffer. Plates were blocked in 300 μL blocking buffer (1% BSA in PBST) at room temperature for 2 hours on an orbital shaker. […] Blocking buffer was discarded and 100 μL/well of diluted antibody was added to the plates. Plates were incubated at room temperature for 2 hours on an orbital shaker. Antibody solution was discarded and plates were washed three times using PBST. 100 μL/well of goat-anti-human IgG (H+L)-HRP (1:10,000 dilution in blocking buffer) solution was added to the plates, and plates were incubated at room temperature for 1 hour on an orbital shaker. Secondary antibody solution was discarded and plates were washed three times using PBST. 100 μL/well of QuantaBlu fluorogenic peroxidase substrate working solution (Thermo, Cat No. 15169) was added to the plates, and plates were incubated at room temperature for 30 min. Fluorescence was read at excitation 325 nm/emission 420 nm using a SpectraMax M5 (Molecular Devices). Data was analyzed using SoftMaxPro 5.4.2 software with 4-parameter fitting.

In another series the test system is A431 cells. Briefly: Crystal Violet cytotoxicity assay (Example 4), A431 (parental). Particulars: mean of replicate experiments, read-out: Cytotoxicity IC50 (nM), A431 (FR^neg, MSLN^neg). Type of series: cell-based, human. The method, then:
Test reagents were serial diluted 1:3 in 2 mL deep-well dilution plates, starting at 200 nM (10 dilutions total). […] Medium was then discarded. […] Plates were read at 570 nm. Data was analyzed using GraphPad Prism 6. […]
MAL-PEG2-Val-Cit-PAB-eribulin (ER-001159569) was conjugated to eight different anti-human mesothelin antibodies (Table 1). Binding affinities of the parental antibodies were determined by BIAcore analysis, as described above in section 1.6.1. Aggregation levels for all anti-human mesothelin ADCs were determined by SEC-HPLC and the DAR was analyzed using HIC-HPLC. In vitro potency was evaluated using a Crystal Violet cell-based cytotoxicity assay in A3 (A431 stabily transfected with human mesothelin (MSLN), MSLN^hi), OVCAR3 (human ovarian, MSLN^hi), HEC-251 (human endometroid, MSLN^med), H226 (human lung squamous cell mesothelioma, MSLN^lo), and A431 parental (MSLN^neg) cells.

The test system of the next series is NCI-H2110 cells. Briefly: Crystal Violet cytotoxicity assay (Example 4), NCI-H2110. Type of series: cell-based, human. As to conditions: mean of replicate experiments, read-out: Cytotoxicity IC50 (nM), NCI-H2110 (FR^med, MSLN^med). The method, then: (§1) Test reagents were serial diluted 1:3 in 2 mL deep-well dilution plates, starting at 200 nM (10 dilutions total). […] Medium was then discarded. […] Plates were read at 570 nm. Data was analyzed using GraphPad Prism 6.

The subject of another series is IGROV1 cells. Briefly: Crystal Violet cytotoxicity assay (Example 4), IGROV1. Type of series: cell-based, human. Particulars: mean of replicate experiments, read-out: Cytotoxicity IC50 (nM), IGROV1 (FR^hi, MSLN^neg). The method, then:
as §1

The test system of series [3] is human BM-MSCs co-cultured with MKN-74 cells. In words: 3D co-culture system (rStomach, zPredicta), MSC differentiation by flow cytometry. Type of series: cell-based. Particulars: 7 days treatment, MORAb-202 10 nM, MORAb-003 10 nM, eribulin […] and 0.2 nM (Table 41). The method, then: All mesenchymal stem cell (MSC)-containing 3D co-culture experiments were conducted in zPredicta, using organ-specific 3D extracellular matrix systems such as rStomach™. Bone marrow mesenchymal stem cells (BM-MSCs) in rStomach™ were co-cultured with the Nuc Red Light MKN-74 gastric cancer cell line in quadruplicate in 48-well format for 12 days. […] Prior to culture, BM-MSCs were evaluated for target antigen expression and for markers of MSC differentiation (Table 40) by flow cytometry.
Controls included untreated and vehicle-treated (PBS and DMSO) cultures. MSC differentiation was monitored by light microscopy. Once visible differentiation was observed, samples were harvested for staining and flow cytometry analysis.
Bone marrow mesenchymal stem cells (BM-MSCs) in rStomach™ (zPredicta) were co-cultured with the MKN-74 gastric cancer cell line for 12 days. […] Once visible MSC differentiation was observed by light microscopy, samples were harvested for staining and flow cytometry analysis.

The test system of series [4] is LXFA-737 NSCLC patient-derived xenograft. Briefly: NSCLC PDx model LXFA-737. Type of series: in vivo, mouse. As to conditions: for Tumor Volume / Tumor Growth Inhibition: 5 mg/kg single dose i.v.; for Tumor Growth Inhibition: vehicle = 100. The source says:
Tumor implantation: NSCLC tumor fragments were obtained from LXFA-737 tumor xenografts serially passaged in nude mice. After removal from donor mice, tumors were cut into fragments (3-4 mm edge length) and placed in phosphate-buffered saline (PBS) containing 10% penicillin/streptomycin. Recipient animals were anesthetized by inhalation of isoflurane and received unilateral or bilateral tumor implants subcutaneously in the flank. Tumor xenografts were implanted with one or two tumors per mouse at a take rate <65%. In the case of a bilateral take, one of these tumors was explanted prior to randomization. Animals and tumor implants were monitored daily until solid tumor growth was detectable in a sufficient number of animals. At randomization, the volume of growing tumors was determined. […] Animals not used for experiments were euthanized.
Body weight was measured prior to dose on each dosing day, and two times per week during the study. At the end of the study, the terminal body weight was measured and recorded.

Regarding `COc1cc2cc(c1Cl)N(C)C(=O)C[C@H](OC(=O)C(C)N(C)C(=O)CCSC1CC(=O)N(CC3CCC(C(=O)ON4C(=O)CCC4=O)CC3)C1=O)[C@@H]1O[C@H]1[C@H](C)[C@@H]1C[C@@](O)(NC(=O)O1)[C@H](OC)/C=C/C=C(\C)C2` (stereo partly drawn) [M-DM1], the “Aggregation (%)” value in series [1] (MORAb-003 ADCs, SEC-HPLC) is 1.8%. The compound also had a DAR in series [2] (MORAb-003 ADCs, DAR by LC-MS) of 3.6.

On to MORAb009, for which, in the series with human mesothelin, the “Antigen Binding ELISA, EC50” value turned out to be 0.0426 µg/mL and the EC50 (as a rule, the concentration at which the effect is half-maximal) came out at 0.28 nM. In series [1], the “SEC-HPLC Analysis % Aggr.” value is recorded as 0%, the “SEC-HPLC Analysis % Frag.” value is 0% and the “SEC-HPLC Analysis % Monomer” value was 100%.

Consider MORAb009-DBCO-PEG2 eribulin, for which, in the series with A431 cells, the IC50 (as a rule, the concentration at which inhibition is half-maximal) is greater than 100 nM. In the series with NCI-H2110 cells, the IC50 turned out to be 85.7 nM. In addition, in the series with human mesothelin, the “Antigen Binding ELISA, EC50” value was 0.0233 µg/mL and the EC50 was determined as 0.16 nM. Moreover, in series [1], the “SEC-HPLC Analysis % Aggr.” value was found to be 1.15%, the “SEC-HPLC Analysis % Frag.” value amounted to 0% and the “SEC-HPLC Analysis % Monomer” value is recorded as 98.85%. Also, the concentration for half-maximal inhibition (IC50) in the series on IGROV1 cells was 75.7 nM. For the same compound, the “DAR (LC-MS)” value in series [2] came out at 3.07.

In the case of MORAb009-DBCO-PEG4 VCP eribulin, the IC50 in the series with A431 cells is greater than 100 nM. The IC50 with NCI-H2110 cells stood at 31.4 nM. Besides, in the series with human mesothelin, the “Antigen Binding ELISA, EC50” value turned out to be 0.0337 µg/mL and the EC50 is 0.22 nM. In series [1], the “SEC-HPLC Analysis % Aggr.” value is 0.22%, the “SEC-HPLC Analysis % Frag.” value was 0% and the “SEC-HPLC Analysis % Monomer” value amounted to 99.78%. Moreover, in the series on IGROV1 cells, the IC50 came out at 13 nM. For the same compound, in series [2], the “DAR (LC-MS)” value is 2.91.

On to “MORAb-003: humanized anti-human folate receptor alpha antibody (USAN name: farletuzumab)”, for which, in series [3] (PBS 14.6%), the “Percentage of live cells, Pericytes” value was 24.0%. For the same compound, in series [3] (PBS […]), the “Percentage of live cells, Adipocytes” value is reported as 0.69% and the “Percentage of live cells, MSCs” value was 37.1%. In addition, in series [4] (Day 21, n = 6), the “Tumor Volume” value was found to be 860.7 mm^3 and the “Tumor Growth Inhibition” value is recorded as “(85.7) %”. Also, in series [4] (Day 32, n = 6), the “Tumor Volume” value was found to be 1572.1 mm^3 and the “Tumor Growth Inhibition” value is reported as “(100.7) %”. Besides, the “anti-tumor activity, in words” value in series [4] (5 mg/kg single i.v. dose) is recorded as “did not demonstrate significant anti-tumor activity”.
